Blank lines part the entries; values can stand above or below the substance they belong to.
Biological target: recombinant wild-type human alpha-synuclein (human) (UniProt P37840)
Experiment: cell-based or functional assay

Chain of Polo like kinase 2 (PLK2) (Q9NYY3 whole entry): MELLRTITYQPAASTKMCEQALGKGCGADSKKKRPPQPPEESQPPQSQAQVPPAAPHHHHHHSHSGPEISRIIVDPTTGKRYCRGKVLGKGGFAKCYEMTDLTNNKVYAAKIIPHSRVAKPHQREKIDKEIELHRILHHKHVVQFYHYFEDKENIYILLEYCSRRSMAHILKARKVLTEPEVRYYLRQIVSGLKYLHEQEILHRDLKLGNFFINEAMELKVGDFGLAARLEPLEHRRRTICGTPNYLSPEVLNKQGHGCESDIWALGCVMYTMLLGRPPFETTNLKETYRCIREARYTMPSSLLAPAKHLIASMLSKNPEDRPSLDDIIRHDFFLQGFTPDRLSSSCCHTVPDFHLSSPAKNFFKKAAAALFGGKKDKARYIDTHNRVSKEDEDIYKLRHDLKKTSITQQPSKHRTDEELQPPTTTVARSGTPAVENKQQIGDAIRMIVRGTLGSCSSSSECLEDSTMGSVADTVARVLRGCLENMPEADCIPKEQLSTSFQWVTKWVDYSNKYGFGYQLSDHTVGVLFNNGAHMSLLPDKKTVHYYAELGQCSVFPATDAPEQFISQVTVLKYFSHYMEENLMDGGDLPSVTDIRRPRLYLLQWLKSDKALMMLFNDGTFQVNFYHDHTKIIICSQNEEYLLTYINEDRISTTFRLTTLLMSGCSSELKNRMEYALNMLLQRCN
Chain of G protein-coupled receptor kinase 6 (GRK6) (P43250 whole entry): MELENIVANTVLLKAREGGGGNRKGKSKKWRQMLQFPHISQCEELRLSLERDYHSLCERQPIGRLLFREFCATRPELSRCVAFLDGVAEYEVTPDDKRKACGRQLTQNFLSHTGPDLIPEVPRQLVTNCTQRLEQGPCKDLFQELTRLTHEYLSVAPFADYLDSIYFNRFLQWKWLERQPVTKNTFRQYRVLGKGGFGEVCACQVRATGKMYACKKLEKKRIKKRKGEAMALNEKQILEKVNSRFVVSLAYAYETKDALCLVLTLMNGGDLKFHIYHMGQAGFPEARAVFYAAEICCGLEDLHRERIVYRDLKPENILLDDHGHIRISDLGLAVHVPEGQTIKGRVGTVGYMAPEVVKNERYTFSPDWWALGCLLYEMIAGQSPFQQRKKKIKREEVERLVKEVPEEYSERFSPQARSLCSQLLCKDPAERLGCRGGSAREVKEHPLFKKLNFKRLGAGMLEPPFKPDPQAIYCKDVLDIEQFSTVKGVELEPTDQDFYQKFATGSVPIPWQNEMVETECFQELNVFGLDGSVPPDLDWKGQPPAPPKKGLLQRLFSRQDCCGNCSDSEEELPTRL
Chain of CDC7 cell division cycle 7-like 1 (CDC7L1) (O00311 whole entry): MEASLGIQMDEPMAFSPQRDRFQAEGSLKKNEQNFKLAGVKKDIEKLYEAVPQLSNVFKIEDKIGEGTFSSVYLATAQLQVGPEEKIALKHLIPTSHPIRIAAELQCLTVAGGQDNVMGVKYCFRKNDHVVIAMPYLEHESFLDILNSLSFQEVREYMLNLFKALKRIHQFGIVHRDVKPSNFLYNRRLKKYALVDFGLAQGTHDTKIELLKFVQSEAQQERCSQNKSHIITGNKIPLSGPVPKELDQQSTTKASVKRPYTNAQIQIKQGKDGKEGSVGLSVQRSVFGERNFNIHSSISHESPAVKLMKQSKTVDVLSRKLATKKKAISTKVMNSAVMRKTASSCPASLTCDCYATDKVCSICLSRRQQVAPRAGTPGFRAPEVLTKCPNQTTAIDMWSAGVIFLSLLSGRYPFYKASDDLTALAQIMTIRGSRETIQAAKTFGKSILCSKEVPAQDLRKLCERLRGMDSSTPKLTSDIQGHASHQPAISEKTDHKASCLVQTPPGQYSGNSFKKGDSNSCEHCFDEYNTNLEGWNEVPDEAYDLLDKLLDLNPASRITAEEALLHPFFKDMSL
Chain of Aortic preferentially expressed gene 1 (APEG1) (Q15772 whole entry): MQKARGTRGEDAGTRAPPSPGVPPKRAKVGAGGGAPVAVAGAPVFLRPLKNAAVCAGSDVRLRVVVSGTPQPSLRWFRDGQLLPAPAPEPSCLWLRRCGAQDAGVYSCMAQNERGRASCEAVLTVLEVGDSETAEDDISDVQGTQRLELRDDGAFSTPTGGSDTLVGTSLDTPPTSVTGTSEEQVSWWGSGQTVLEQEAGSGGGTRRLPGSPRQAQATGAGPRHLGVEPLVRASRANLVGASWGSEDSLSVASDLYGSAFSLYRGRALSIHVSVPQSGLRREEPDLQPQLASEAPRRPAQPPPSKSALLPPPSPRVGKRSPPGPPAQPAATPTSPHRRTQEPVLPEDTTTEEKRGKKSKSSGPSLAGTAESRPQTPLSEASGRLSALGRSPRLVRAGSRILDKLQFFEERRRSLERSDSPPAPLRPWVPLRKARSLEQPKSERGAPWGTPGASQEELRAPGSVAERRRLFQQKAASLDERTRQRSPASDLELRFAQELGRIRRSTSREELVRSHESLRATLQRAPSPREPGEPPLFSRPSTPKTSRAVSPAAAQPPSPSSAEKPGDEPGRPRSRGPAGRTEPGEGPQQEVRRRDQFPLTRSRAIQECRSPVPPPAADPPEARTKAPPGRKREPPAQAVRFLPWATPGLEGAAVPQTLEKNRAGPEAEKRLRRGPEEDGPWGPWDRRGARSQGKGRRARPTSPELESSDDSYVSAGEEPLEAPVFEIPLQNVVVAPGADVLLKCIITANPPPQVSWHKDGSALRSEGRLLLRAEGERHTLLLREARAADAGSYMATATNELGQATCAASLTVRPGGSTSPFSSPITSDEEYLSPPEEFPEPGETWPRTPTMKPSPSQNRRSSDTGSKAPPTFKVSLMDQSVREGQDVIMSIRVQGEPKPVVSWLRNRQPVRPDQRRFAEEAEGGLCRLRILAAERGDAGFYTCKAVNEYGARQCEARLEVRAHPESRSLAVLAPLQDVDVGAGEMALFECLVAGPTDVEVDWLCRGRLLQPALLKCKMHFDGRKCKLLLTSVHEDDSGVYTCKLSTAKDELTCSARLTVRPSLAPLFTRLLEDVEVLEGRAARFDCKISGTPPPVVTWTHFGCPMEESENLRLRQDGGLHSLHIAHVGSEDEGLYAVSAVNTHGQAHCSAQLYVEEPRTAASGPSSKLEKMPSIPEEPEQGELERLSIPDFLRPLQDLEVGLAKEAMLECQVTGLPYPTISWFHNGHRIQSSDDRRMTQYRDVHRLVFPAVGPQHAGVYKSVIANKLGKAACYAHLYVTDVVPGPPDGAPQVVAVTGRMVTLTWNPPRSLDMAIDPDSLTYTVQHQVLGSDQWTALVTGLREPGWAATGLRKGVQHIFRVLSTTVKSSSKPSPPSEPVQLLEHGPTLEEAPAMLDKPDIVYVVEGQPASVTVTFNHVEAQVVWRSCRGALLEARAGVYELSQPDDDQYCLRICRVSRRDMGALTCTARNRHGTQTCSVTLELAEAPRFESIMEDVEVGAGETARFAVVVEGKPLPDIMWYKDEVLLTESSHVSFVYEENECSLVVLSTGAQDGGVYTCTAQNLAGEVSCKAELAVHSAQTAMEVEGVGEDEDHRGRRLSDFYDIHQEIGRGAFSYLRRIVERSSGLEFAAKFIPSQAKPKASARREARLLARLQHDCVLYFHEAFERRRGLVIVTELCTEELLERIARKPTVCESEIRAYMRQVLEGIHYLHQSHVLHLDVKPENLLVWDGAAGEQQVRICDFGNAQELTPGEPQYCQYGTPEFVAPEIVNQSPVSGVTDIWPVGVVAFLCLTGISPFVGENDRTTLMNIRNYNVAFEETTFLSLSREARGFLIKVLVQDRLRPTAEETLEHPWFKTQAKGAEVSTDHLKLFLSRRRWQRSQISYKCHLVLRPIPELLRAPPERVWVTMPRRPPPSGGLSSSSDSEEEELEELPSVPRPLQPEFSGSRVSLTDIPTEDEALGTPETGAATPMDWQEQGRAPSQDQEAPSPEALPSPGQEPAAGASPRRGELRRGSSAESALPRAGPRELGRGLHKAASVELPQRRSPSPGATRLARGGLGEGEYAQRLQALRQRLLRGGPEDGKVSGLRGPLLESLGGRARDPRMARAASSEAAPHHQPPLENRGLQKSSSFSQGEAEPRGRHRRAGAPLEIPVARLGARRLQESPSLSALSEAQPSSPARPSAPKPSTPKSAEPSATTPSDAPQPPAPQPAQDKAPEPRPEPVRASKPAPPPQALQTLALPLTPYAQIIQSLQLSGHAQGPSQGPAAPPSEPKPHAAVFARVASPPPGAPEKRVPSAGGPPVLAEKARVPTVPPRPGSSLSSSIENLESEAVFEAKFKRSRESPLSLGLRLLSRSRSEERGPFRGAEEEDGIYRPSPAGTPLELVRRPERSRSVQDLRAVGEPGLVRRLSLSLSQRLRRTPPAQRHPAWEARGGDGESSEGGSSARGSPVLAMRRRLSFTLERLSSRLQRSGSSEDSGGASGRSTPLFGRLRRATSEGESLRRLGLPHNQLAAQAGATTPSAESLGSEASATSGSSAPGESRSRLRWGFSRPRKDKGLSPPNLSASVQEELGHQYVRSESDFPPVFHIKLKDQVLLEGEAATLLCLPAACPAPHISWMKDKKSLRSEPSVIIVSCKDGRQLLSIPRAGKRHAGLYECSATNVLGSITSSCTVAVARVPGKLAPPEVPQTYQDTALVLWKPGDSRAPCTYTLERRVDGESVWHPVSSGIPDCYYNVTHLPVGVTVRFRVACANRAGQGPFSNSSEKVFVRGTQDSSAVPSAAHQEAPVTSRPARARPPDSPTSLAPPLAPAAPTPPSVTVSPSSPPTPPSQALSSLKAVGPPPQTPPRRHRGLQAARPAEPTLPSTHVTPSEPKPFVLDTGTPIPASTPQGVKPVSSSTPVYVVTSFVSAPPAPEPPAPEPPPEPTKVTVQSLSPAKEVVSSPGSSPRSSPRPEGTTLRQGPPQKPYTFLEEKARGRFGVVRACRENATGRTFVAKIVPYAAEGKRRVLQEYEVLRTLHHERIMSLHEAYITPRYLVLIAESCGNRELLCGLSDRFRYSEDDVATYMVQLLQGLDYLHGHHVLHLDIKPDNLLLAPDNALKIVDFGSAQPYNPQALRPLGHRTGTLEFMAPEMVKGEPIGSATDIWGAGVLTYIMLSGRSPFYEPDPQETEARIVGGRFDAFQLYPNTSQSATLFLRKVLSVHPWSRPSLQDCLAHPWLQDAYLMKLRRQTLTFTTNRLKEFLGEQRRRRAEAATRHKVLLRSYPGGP

percentage of phospho-synuclein, ELISA, PEAK-Syn cells transfected with kinase cDNA: 8.9%
Substance: Aortic preferentially expressed gene 1 (APEG1) (from UniProt Q15772 1-3267) (enzyme)

percentage of phospho-synuclein, ELISA, PEAK-Syn cells transfected with kinase cDNA: 8.9%
Substance: CDC7 cell division cycle 7-like 1 (CDC7L1) (from UniProt O00311 1-574) (enzyme)

fold increase of phospho-synuclein, HEK-synuclein cells: 2 fold | percent phospho-synuclein, ELISA, cells transfected with GPRK6 cDNA: 18.9%
Substance: G protein-coupled receptor kinase 6 (GRK6) (from UniProt P43250 1-576) (enzyme)

fold increase of percent phospho-synuclein, cells transfected with PLK2 cDNA: 4 fold | fold increase of phospho-synuclein over untransfected cells, ELISA, 293-synuclein cells: 4.3 fold | percent phospho-synuclein, ELISA, cells transfected with PLK2 cDNA: 33.2%
Substance: Polo like kinase 2 (PLK2) (from UniProt Q9NYY3 1-685) (enzyme)

percentage of phospho-synuclein, ELISA, PEAK-Syn cells transfected with kinase cDNA: 8.9%
Substance: Protein kinase, cGMP-dependent, regulatory, Type I (PRKG1) (from UniProt Q13976 2-671) (enzyme)
